Here are results for three substances from PMC5932250 (Journal of the American Chemical Society, 2018).

Assay [1] has as its system protein tyrosine phosphatase 1B (PTP1B). To be noted: at 50 μM; ref [48]; cited from earlier work.
Assay [2] deals with FITC-SgbA(leader) (Streptomyces globisporus subsp. globisporus NRRL B2293). As to the kind of experiment: fluorescence polarisation. On the technique in general: Polarisation of emitted light reports the rotation of a fluorescent probe.

In the case of streptocollin, the “inhibition of PTP1B” value in assay [1] is on record as 33%. Consider “His6-SgbL(lyase-kinase 1-548) (domain or fragment)”, for which, in assay [2], the Kd (commonly a measure of binding affinity in units of concentration) was determined as 351 nM. The same measure, in the same setting: for “His6-SgbL(kinase 208-548) (domain or fragment)” the value was 357 nM.
